Measurements from patent EP4663654A1 (Hangzhou Sciwind Biosciences Co., Ltd., dated 2025).
Starred links: 1 amine or outer side, 2 acyl side, 3 side chain; linkers in the order of their positions; H or OH if unused. Non-standard residues stand in square brackets, D forms with d. *: point of attachment. C20 diacid = O=C(O)CCCCCCCCCCCCCCCCCCC(=O)*; γGlu = O=C(O)[C@H](CCC(=O)[*:2])N[*:1]; Hyp = O=C(O)[C@@H]1C[C@@H](O)CN1; NMeD = CN[C@@H](CC(=O)O)C(=O)O; NMeN = CN[C@@H](CC(N)=O)C(=O)O

T1: human amylin receptor (AMY3) on CHO-K1/Ga15/AMY3 amylin receptor/CRE-luc cells (human, UniProt P30988 25-474; O60896 24-148)
T1 sequence (looked up) 1: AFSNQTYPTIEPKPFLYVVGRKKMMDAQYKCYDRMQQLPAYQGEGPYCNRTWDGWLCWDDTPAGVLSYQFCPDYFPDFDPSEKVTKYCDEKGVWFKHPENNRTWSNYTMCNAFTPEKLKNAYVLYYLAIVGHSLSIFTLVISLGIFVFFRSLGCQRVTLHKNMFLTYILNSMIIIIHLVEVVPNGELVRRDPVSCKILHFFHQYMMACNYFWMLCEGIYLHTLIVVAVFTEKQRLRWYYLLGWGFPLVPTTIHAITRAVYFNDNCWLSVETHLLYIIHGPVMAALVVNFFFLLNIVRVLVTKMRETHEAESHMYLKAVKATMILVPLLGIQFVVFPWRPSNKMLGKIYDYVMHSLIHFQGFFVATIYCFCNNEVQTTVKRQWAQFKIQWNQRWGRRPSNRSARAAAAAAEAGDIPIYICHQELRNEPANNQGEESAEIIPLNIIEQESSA
T1 sequence (looked up) 2: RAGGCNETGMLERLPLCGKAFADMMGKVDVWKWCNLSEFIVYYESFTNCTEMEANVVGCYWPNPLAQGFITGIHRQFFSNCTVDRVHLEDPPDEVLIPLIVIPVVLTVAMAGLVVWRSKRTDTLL

B1: polypeptide derivative M49 (peptide)
peptide: {C20 diacid-γGlu}-ASQLSTAATQRLADFLRHSSTNLKPILPPTNVGSNT[Hyp]-NH2
SMILES: CC[C@H](C)[C@H](NC(=O)[C@@H]1CCCN1C(=O)[C@H](CCCCN)NC(=O)[C@H](CC(C)C)NC(=O)[C@H](CC(N)=O)NC(=O)[C@@H](NC(=O)[C@H](CO)NC(=O)[C@H](CO)NC(=O)[C@H](Cc1c[nH]cn1)NC(=O)[C@H](CCCNC(=N)N)NC(=O)[C@H](CC(C)C)NC(=O)[C@H](Cc1ccccc1)NC(=O)[C@H](CC(=O)O)NC(=O)[C@H](C)NC(=O)[C@H](CC(C)C)NC(=O)[C@H](CCCNC(=N)N)NC(=O)[C@H](CCC(N)=O)NC(=O)[C@@H](NC(=O)[C@H](C)NC(=O)[C@H](C)NC(=O)[C@@H](NC(=O)[C@H](CO)NC(=O)[C@H](CC(C)C)NC(=O)[C@H](CCC(N)=O)NC(=O)[C@H](CO)NC(=O)[C@H](C)NC(=O)CC[C@H](NC(=O)CCCCCCCCCCCCCCCCCCC(=O)O)C(=O)O)[C@@H](C)O)[C@@H](C)O)[C@@H](C)O)C(=O)N[C@@H](CC(C)C)C(=O)N1CCC[C@H]1C(=O)N1CCC[C@H]1C(=O)N[C@H](C(=O)N[C@@H](CC(N)=O)C(=O)N[C@H](C(=O)NCC(=O)N[C@@H](CO)C(=O)N[C@@H](CC(N)=O)C(=O)N[C@H](C(=O)N1C[C@H](O)C[C@H]1C(N)=O)[C@@H](C)O)C(C)C)[C@@H](C)O
B2: polypeptide derivative M45 (peptide)
peptide: {C20 diacid-γGlu}-ASQLSTAATQRLADFLRHSSN[NMeD]LKPILPPTNVGSNT[Hyp]-NH2
SMILES: CC[C@H](C)[C@H](NC(=O)[C@@H]1CCCN1C(=O)[C@H](CCCCN)NC(=O)[C@H](CC(C)C)NC(=O)[C@H](CC(=O)O)N(C)C(=O)[C@H](CC(N)=O)NC(=O)[C@H](CO)NC(=O)[C@H](CO)NC(=O)[C@H](Cc1c[nH]cn1)NC(=O)[C@H](CCCNC(=N)N)NC(=O)[C@H](CC(C)C)NC(=O)[C@H](Cc1ccccc1)NC(=O)[C@H](CC(=O)O)NC(=O)[C@H](C)NC(=O)[C@H](CC(C)C)NC(=O)[C@H](CCCNC(=N)N)NC(=O)[C@H](CCC(N)=O)NC(=O)[C@@H](NC(=O)[C@H](C)NC(=O)[C@H](C)NC(=O)[C@@H](NC(=O)[C@H](CO)NC(=O)[C@H](CC(C)C)NC(=O)[C@H](CCC(N)=O)NC(=O)[C@H](CO)NC(=O)[C@H](C)NC(=O)CC[C@H](NC(=O)CCCCCCCCCCCCCCCCCCC(=O)O)C(=O)O)[C@@H](C)O)[C@@H](C)O)C(=O)N[C@@H](CC(C)C)C(=O)N1CCC[C@H]1C(=O)N1CCC[C@H]1C(=O)N[C@H](C(=O)N[C@@H](CC(N)=O)C(=O)N[C@H](C(=O)NCC(=O)N[C@@H](CO)C(=O)N[C@@H](CC(N)=O)C(=O)N[C@H](C(=O)N1C[C@H](O)C[C@H]1C(N)=O)[C@@H](C)O)C(C)C)[C@@H](C)O
B3: polypeptide derivative M46 (peptide)
peptide: {C20 diacid-γGlu}-ASQLSTAATQRLADFLRHSSQNLKPILPPTNVGSNT[Hyp]-NH2
SMILES: CC[C@H](C)[C@H](NC(=O)[C@@H]1CCCN1C(=O)[C@H](CCCCN)NC(=O)[C@H](CC(C)C)NC(=O)[C@H](CC(N)=O)NC(=O)[C@H](CCC(N)=O)NC(=O)[C@H](CO)NC(=O)[C@H](CO)NC(=O)[C@H](Cc1c[nH]cn1)NC(=O)[C@H](CCCNC(=N)N)NC(=O)[C@H](CC(C)C)NC(=O)[C@H](Cc1ccccc1)NC(=O)[C@H](CC(=O)O)NC(=O)[C@H](C)NC(=O)[C@H](CC(C)C)NC(=O)[C@H](CCCNC(=N)N)NC(=O)[C@H](CCC(N)=O)NC(=O)[C@@H](NC(=O)[C@H](C)NC(=O)[C@H](C)NC(=O)[C@@H](NC(=O)[C@H](CO)NC(=O)[C@H](CC(C)C)NC(=O)[C@H](CCC(N)=O)NC(=O)[C@H](CO)NC(=O)[C@H](C)NC(=O)CC[C@H](NC(=O)CCCCCCCCCCCCCCCCCCC(=O)O)C(=O)O)[C@@H](C)O)[C@@H](C)O)C(=O)N[C@@H](CC(C)C)C(=O)N1CCC[C@H]1C(=O)N1CCC[C@H]1C(=O)N[C@H](C(=O)N[C@@H](CC(N)=O)C(=O)N[C@H](C(=O)NCC(=O)N[C@@H](CO)C(=O)N[C@@H](CC(N)=O)C(=O)N[C@H](C(=O)N1C[C@H](O)C[C@H]1C(N)=O)[C@@H](C)O)C(C)C)[C@@H](C)O
B4: polypeptide derivative M48 (peptide)
peptide: {C20 diacid-γGlu}-ASQLSTAATQRLADFLRHSSSNLKPILPPTNVGSNT[Hyp]-NH2
SMILES: CC[C@H](C)[C@H](NC(=O)[C@@H]1CCCN1C(=O)[C@H](CCCCN)NC(=O)[C@H](CC(C)C)NC(=O)[C@H](CC(N)=O)NC(=O)[C@H](CO)NC(=O)[C@H](CO)NC(=O)[C@H](CO)NC(=O)[C@H](Cc1c[nH]cn1)NC(=O)[C@H](CCCNC(=N)N)NC(=O)[C@H](CC(C)C)NC(=O)[C@H](Cc1ccccc1)NC(=O)[C@H](CC(=O)O)NC(=O)[C@H](C)NC(=O)[C@H](CC(C)C)NC(=O)[C@H](CCCNC(=N)N)NC(=O)[C@H](CCC(N)=O)NC(=O)[C@@H](NC(=O)[C@H](C)NC(=O)[C@H](C)NC(=O)[C@@H](NC(=O)[C@H](CO)NC(=O)[C@H](CC(C)C)NC(=O)[C@H](CCC(N)=O)NC(=O)[C@H](CO)NC(=O)[C@H](C)NC(=O)CC[C@H](NC(=O)CCCCCCCCCCCCCCCCCCC(=O)O)C(=O)O)[C@@H](C)O)[C@@H](C)O)C(=O)N[C@@H](CC(C)C)C(=O)N1CCC[C@H]1C(=O)N1CCC[C@H]1C(=O)N[C@H](C(=O)N[C@@H](CC(N)=O)C(=O)N[C@H](C(=O)NCC(=O)N[C@@H](CO)C(=O)N[C@@H](CC(N)=O)C(=O)N[C@H](C(=O)N1C[C@H](O)C[C@H]1C(N)=O)[C@@H](C)O)C(C)C)[C@@H](C)O
B5: polypeptide derivative M47 (peptide)
peptide: {C20 diacid-γGlu}-ASQLSTAATQRLADFLRHSSENLKPILPPTNVGSNT[Hyp]-NH2
SMILES: CC[C@H](C)[C@H](NC(=O)[C@@H]1CCCN1C(=O)[C@H](CCCCN)NC(=O)[C@H](CC(C)C)NC(=O)[C@H](CC(N)=O)NC(=O)[C@H](CCC(=O)O)NC(=O)[C@H](CO)NC(=O)[C@H](CO)NC(=O)[C@H](Cc1c[nH]cn1)NC(=O)[C@H](CCCNC(=N)N)NC(=O)[C@H](CC(C)C)NC(=O)[C@H](Cc1ccccc1)NC(=O)[C@H](CC(=O)O)NC(=O)[C@H](C)NC(=O)[C@H](CC(C)C)NC(=O)[C@H](CCCNC(=N)N)NC(=O)[C@H](CCC(N)=O)NC(=O)[C@@H](NC(=O)[C@H](C)NC(=O)[C@H](C)NC(=O)[C@@H](NC(=O)[C@H](CO)NC(=O)[C@H](CC(C)C)NC(=O)[C@H](CCC(N)=O)NC(=O)[C@H](CO)NC(=O)[C@H](C)NC(=O)CC[C@H](NC(=O)CCCCCCCCCCCCCCCCCCC(=O)O)C(=O)O)[C@@H](C)O)[C@@H](C)O)C(=O)N[C@@H](CC(C)C)C(=O)N1CCC[C@H]1C(=O)N1CCC[C@H]1C(=O)N[C@H](C(=O)N[C@@H](CC(N)=O)C(=O)N[C@H](C(=O)NCC(=O)N[C@@H](CO)C(=O)N[C@@H](CC(N)=O)C(=O)N[C@H](C(=O)N1C[C@H](O)C[C@H]1C(N)=O)[C@@H](C)O)C(C)C)[C@@H](C)O
B6: polypeptide derivative M44 (peptide)
peptide: {C20 diacid-γGlu}-ASQLSTAATQRLADFLRHSSN[NMeN]LKPILPPTNVGSNT[Hyp]-NH2
SMILES: CC[C@H](C)[C@H](NC(=O)[C@@H]1CCCN1C(=O)[C@H](CCCCN)NC(=O)[C@H](CC(C)C)NC(=O)[C@H](CC(N)=O)N(C)C(=O)[C@H](CC(N)=O)NC(=O)[C@H](CO)NC(=O)[C@H](CO)NC(=O)[C@H](Cc1c[nH]cn1)NC(=O)[C@H](CCCNC(=N)N)NC(=O)[C@H](CC(C)C)NC(=O)[C@H](Cc1ccccc1)NC(=O)[C@H](CC(=O)O)NC(=O)[C@H](C)NC(=O)[C@H](CC(C)C)NC(=O)[C@H](CCCNC(=N)N)NC(=O)[C@H](CCC(N)=O)NC(=O)[C@@H](NC(=O)[C@H](C)NC(=O)[C@H](C)NC(=O)[C@@H](NC(=O)[C@H](CO)NC(=O)[C@H](CC(C)C)NC(=O)[C@H](CCC(N)=O)NC(=O)[C@H](CO)NC(=O)[C@H](C)NC(=O)CC[C@H](NC(=O)CCCCCCCCCCCCCCCCCCC(=O)O)C(=O)O)[C@@H](C)O)[C@@H](C)O)C(=O)N[C@@H](CC(C)C)C(=O)N1CCC[C@H]1C(=O)N1CCC[C@H]1C(=O)N[C@H](C(=O)N[C@@H](CC(N)=O)C(=O)N[C@H](C(=O)NCC(=O)N[C@@H](CO)C(=O)N[C@@H](CC(N)=O)C(=O)N[C@H](C(=O)N1C[C@H](O)C[C@H]1C(N)=O)[C@@H](C)O)C(C)C)[C@@H](C)O

Target: T1, human amylin receptor (AMY3) on …
Experiment: cell-based or functional assay

EC50/nM, CRE-luciferase reporter in amylin receptor/CRE-luc CHO cells | Relative activity (the EC50 ratio of Cagrilintide to the compound) | Binder
0.08 nM | 163% | B1
0.07 nM | 129% | B2
0.06 nM | 150% | B3
0.05 nM | 180% | B4
0.08 nM | 113% | B5
0.1 nM | 130% | B6
